For data set [1], the target named is T1, I-SceI homing endonuclease (expressed in HEK-293 from pSce) (UniProt P03882 P03882:1-235).
T1 sequence: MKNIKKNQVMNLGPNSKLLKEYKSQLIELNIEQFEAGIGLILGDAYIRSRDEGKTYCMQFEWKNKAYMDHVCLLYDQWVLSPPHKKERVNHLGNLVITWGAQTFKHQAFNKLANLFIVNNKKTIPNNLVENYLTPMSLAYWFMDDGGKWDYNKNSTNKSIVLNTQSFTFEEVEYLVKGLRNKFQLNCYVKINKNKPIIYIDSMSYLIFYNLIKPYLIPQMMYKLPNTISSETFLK
The experiment in a line: cell_activity; RFP+ over C.Red.30, hand counts (4-fold by flow cytometry). How it is done: (§1) Protocols, 1:1412-1428 (2006)) 24 h before transfection. For transfections in HEK-293 cells, the plasmid DNA was used in the amount of 0.5 μg for the expression vector, as well as 0.5 μg for the targeted vector, and the repairing DNA oligonucleotide used was 1 μg, unless otherwise indicated. For the transfections with I-SceI digested pLDSLm, 0.5 m g of the linearized pLDSLm vector was used with 1 m g of repairing DNA oligonucleotide. Digestion of the pLDSLm vector was done using I-SceI (New England Biolabs, Ipswich, Mass., USA). Ten micrograms of plasmid pLDSLm was digested using 15 U I-SceI, 250 ng bovine serum albumin (BSA), 10×I-SceI buffer (New England Biolabs, Ipswich, Mass., USA) and water to a final volume of 50 μl. Digestions were done overnight at 37° C. In all transfection experiments, the oligonucleotides and the plasmid were diluted in DMEM without supplements, and then PEI was added, the solution was vortexed and added to the wells 10-15 min later. Red fluorescent cells were visualized by fluorescent microscopy using a Zeiss Observer A1 microscope and an AxioCam MRm camera (Zeiss, Thornwood, N.Y., USA). […] For certain transfections, wells of 24-well plates were seeded with 150,000 cells (on the day before transfection) and 5-8 days after transfection individual fluorescent cells per well were counted using a fluorescence microscope just before flow cytometry analysis. […]
(Flow cytometry measures light scatter and fluorescence of single cells or particles in a stream.)

In data set [2] the target is T2, I-SceI homing endonuclease (expressed in yeast from GAL1-10 promoter) (UniProt P03882 P03882:1-235).
T2 sequence: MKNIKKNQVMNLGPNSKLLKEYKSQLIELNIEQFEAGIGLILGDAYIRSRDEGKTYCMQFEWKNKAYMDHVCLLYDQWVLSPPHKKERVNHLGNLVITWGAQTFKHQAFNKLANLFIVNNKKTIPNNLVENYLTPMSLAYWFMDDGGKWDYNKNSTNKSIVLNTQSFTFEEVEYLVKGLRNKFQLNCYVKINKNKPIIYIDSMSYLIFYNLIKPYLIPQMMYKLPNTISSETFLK
The experiment in a line: cell_activity; gene correction over P1-r-P2.TRP5.40; I-SceI induced before transformation. How it is done: Briefly, 50 ml of yeast extract-peptone-lactic acid (YPLac) (lactic acid 2%), pH 5.8, or yeast extract-peptone-dextrose (YPD) liquid culture was inoculated about 24 h before transformation and incubated with vigorous shaking at 30° C. YPLac was used as a neutral carbon source so as not to induce I-SceI expression until plating the transformations to selective galactose-containing media. YPD was used to repress I-SceI expression until plating the transformations to selective glucose-containing media. Transformations were done with 1 nmol of total oligonucleotide DNA, with the exception of the PAGE-purified oligonucleotides in which transformations were done with 500 pmol of total oligonucleotide DNA. For the transformations testing to determine whether the aptamer was working in trans, two oligonucleotides were used, 500 pmol of each oligonucleotide, such that the combined total oligonucleotide DNA used was 1 nmol. Sequences of oligonucleotides used for repair can be found in Table 1. Cells from each transformation were diluted appropriately and plated to synthetic complete medium lacking the respective amino acid and containing 2% galactose for I-SceI induction, 2 or 0.2% galactose for HO induction or 2% glucose for I-SceI or HO repression. […] Viability after transformation was calculated by plating to glucose-containing synthetic complete medium. […]

Data set [3] addresses T1, I-SceI homing endonuclease (expressed …). The experiment in a line: cell_activity; RFP+ over C.Red.40, flow cytometry. As for the experimental part:
as §1

B1: A7.Red.30 (ssDNA)
DNA: GCGGGCGCTGTTGACAGCGGTCAGGTGGATGGGATGCAGGACTCCTCCCTGCAGGACGGCTGCTTC
In the case of B1, in data set [1], the activity was determined as 16 fold.

B2: P1-A7-P2.TRP5.40 (ssDNA)
DNA: CTTCTGCCCGCCTCCTTCCGCGGGCGCTGTTGACAGCGGTCAGGTGGATGGGATGGACGAGATAGGCGGACACTGGTTTTGATGAAGCTGTCGCGGATCCCACATTCTGGGAAG
Consider B2, for which, in data set [2], the activity is 1.25 fold.

B3: A7.Red.40 (ssDNA)
DNA: GCGGGCGCTGTTGACAGCGGTCAGGTGGATGGGATGTGACCCAGGACTCCTCCCTGCAGGACGGCTGCTTCATCTA
As for B3, the activity in data set [3] came out at 6 fold.

The values above are taken from US20160032292, “Aptamer-Guided Gene Targeting” (Georgia Tech Research Corporation, published 2016).
